T1: Cynomolgus TNFR2-His (Sino 90102-C08H) (cynomolgus monkey, UniProt A0A2K5VET2 132-366)
T1 construct: Bought protein; also called cynomolgus monkey TNFR2; recombinant cynomolgus monkey TNFR2 protein; not shown: His tag
T1 sequence: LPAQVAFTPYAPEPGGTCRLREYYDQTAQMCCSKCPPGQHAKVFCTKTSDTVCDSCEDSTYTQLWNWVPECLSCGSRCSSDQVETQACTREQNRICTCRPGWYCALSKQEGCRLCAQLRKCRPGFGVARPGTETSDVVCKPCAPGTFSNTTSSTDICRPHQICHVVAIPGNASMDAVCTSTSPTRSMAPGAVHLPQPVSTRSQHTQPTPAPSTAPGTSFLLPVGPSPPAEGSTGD

T2: Human TNFR2-His (Sino 10417-H08H) (human, UniProt P20333 23-257)
T2 construct: Bought protein; also called recombinant human TNFR2 protein; not shown: His tag
T2 sequence (looked up): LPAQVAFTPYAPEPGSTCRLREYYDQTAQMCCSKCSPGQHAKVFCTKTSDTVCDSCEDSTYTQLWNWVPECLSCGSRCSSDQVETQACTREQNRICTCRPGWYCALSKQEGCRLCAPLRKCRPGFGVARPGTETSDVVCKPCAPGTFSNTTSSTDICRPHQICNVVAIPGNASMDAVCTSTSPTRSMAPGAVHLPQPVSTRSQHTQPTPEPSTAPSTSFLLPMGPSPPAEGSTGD

T3: human TNFR2 on the surface of CHO-TNFR2 cells (human, UniProt P20333 23-461)
T3 construct: whole, on cells
T3 sequence (looked up): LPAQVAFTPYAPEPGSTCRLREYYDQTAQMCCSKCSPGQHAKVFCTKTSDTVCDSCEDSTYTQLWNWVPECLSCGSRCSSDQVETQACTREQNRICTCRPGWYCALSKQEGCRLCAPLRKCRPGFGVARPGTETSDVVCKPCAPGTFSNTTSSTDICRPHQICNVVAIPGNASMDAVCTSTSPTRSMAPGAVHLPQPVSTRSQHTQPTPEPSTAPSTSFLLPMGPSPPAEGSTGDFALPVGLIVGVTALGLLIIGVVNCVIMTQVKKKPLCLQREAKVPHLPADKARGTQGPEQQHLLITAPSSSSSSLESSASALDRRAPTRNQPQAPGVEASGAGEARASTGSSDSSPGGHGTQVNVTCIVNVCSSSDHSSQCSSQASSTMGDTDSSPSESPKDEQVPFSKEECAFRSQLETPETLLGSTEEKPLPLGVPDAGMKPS

B1: 224-Hu6 (antibody, V domains shown)
VH: QVQLVQSGAEVKKPGASVKVSCKASGFNNKDIYMHWVRQAPGQGLEWIGRIDPATGNTKHDPKFQDRVTMTSDTSTNTVYMELSSLRSEDTAVYYCARSPYGDFGAMDYWGQGTLVTVSS
VL: DIQMTQSPSSLSASVGDRVTITCTASSSVSSNYLHWYQQKPGSSPKLWIYSTSNLPSGVPSRFSGSGSGTDFTLTISSLQPEDFATYYCHQYHRSPWTFGQGTKVEIK
notes: Humanized form of #224; also called VH8 + VL7
B2: 224-Hu7 (antibody, V domains shown)
VH: QVQLVQSGSELKKPGASVKVSCKASGFNNKDIYMHWVRQAPGQGLEWMGRIDPATGNTKHDPKFQDKAVLSSDTSVSTAYLQISSLKAEDTAVYYCARSPYGDFGAMDYWGQGTLVTVSS
VL: DIQMTQSPSSLSASVGDRVTITCTASSSVSSNYLHWYQQKPGKAPKLLIYSTSNLPSGVPSRFSGSGSGTDFTLTISSLQPEDFATYYCHQYHRSPWTFGQGTKVEIK
notes: Humanized form of #224; also called VH9 + VL10
B3: 224-Hu4 (antibody, V domains shown)
VH: QVQLVQSGSELKKPGASVKVSCKASGFNNKDIYMHWVRQAPGQGLEWMGRIDPATGNTKHDPKFQDKAVLSSDTSVSTAYLQISSLKAEDTAVYYCARSPYGDFGAMDYWGQGTLVTVSS
VL: DIQMTQSPSSLSASVGDRVTITCTASSSVSSNYLHWYQQKPGKAPKLWIYSTSNLPSGVPSRFSGSGSGTDFTLTISSLQPEDFATYYCHQYHRSPWTFGQGTKVEIK
notes: Humanized form of #224; also called VH9 + VL6
B4: 224-Hu3 (antibody, V domains shown)
VH: QVQLVQSGSELKKPGASVKVSCKASGFNNKDIYMHWVRQAPGQGLEWMGRIDPATGNTKHDPKFQDKAVLSSDTSVSTAYLQISSLKAEDTAVYYCARSPYGDFGAMDYWGQGTLVTVSS
VL: DIQMTQSPSSLSASVGDRVTITCTASSSVSSNYLHWYQQKPGKAPKLLIYSTSNLPSGVPSRFSGSGSGTDFTLTISSLQAEDAATYYCHQYHRSPWTFGQGTKVEIK
notes: Humanized form of #224; also called VH9 + VL8
B5: 224-Hu2 (antibody, V domains shown)
VH: QVQLVQSGSELKKPGASVKVSCKASGFNNKDIYMHWVRQAPGQGLEWMGRIDPATGNTKHDPKFQDKAVLSSDTSVSTAYLQISSLKAEDTAVYYCARSPYGDFGAMDYWGQGTLVTVSS
VL: DIQMTQSPSSLSASVGDRVTITCTASSSVSSNYLHWYQQKPGSSPKLWIYSTSNLPSGVPSRFSGSGSGTDFTLTISSLQPEDFATYYCHQYHRSPWTFGQGTKVEIK
notes: Humanized form of #224; also called VH9 + VL7
B6: 224-Hu5 (antibody, V domains shown)
VH: QVQLVQSGSELKKPGASVKVSCKASGFNNKDIYMHWVRQAPGQGLEWMGRIDPATGNTKHDPKFQDKAVLSSDTSVSTAYLQISSLKAEDTAVYYCARSPYGDFGAMDYWGQGTLVTVSS
VL: DIQMTQSPSSLSASVGDRVTITCTASSSVSSNYLHWYQQKPGKAPKLLIYSTSNLPSGVPSRFSGSGSGTDYSLTISSLQPEDFATYYCHQYHRSPWTFGQGTKVEIK
notes: Humanized form of #224; also called VH9 + VL9

Experiments:
[1] = biological target: T1, Cynomolgus TNFR2-His (Sino 90102-C08H); test: SPR (Biacore T200), antibody captured on Protein A chip
Experimental: (§1) Biacore was used to detect the specific binding of a test anti-TNFR2 antibody to human and cynomolgus monkey TNFR2 proteins. In this experiment, a Protein A chip was used, the time required for the chip to capture the diluted antibody was determined by manual run, so that the Rmax of the saturated binding to an antigen was 50 RU. […] The affinity of an antibody for an antigen was determined by using multi-cycle dynamics. In each cycle, an antibody was injected and then a TNFR2 protein at a gradient concentration was injected, so that the antigen and the antibody underwent binding and dissociation processes. After each cycle, the Protein A chip was regenerated with Glycine pH 1.5 (removing the protein on the chip). The affinity KD of an antibody and an antigen was fitted with BIAcore T200 analysis software.

[2] = biological target: T2, Human TNFR2-His (Sino 10417-H08H); test: as above
Experimental: as §1

[3] = biological target: T3, human TNFR2 on the surface of CHO-TNFR2 …; test: flow cytometry on CHO-TNFR2 cells
Experimental: The transfected full-length plasmid of human TNFR2 was purchased from Sino Biological (Cat #HG10417-UT, NCBI Ref Seq: NM_001066.2). The experiment was conducted at a cell density within 80%. The cell medium was discarded; the cells were rinsed with PBS, and digested with 1 ml trypsin for 2 minutes; the digestion was stopped with a Ham's F12 complete medium containing 10% FBS, and then a cell suspension was made. The cell suspension was counted, and then an appropriate amount of cell suspension was centrifuged at 350×g; the supernatant was discarded; a corresponding volume of blocking solution (10% FBS+PBS) at a density of 1×10⁷ cells/ml was added to resuspend the cells, and the mixture was incubated at 4° C. for 30 minutes. After the incubation, the mixture was centrifuged at 350×g to remove the supernatant, and the cells were resuspended in a staining buffer (2% FBS+PBS) to a density of 2×10⁶ cells/ml, and spread onto a 96-well plate, with 50 μl of cell suspension added to each well for later use. The antibody was diluted with PBS for 10-fold gradient dilution from the highest concentration of 20 μg/m (twice the concentration); the diluted antibody was added to the well containing 50 μl of cell suspension, and placed on a microplate shaker for shaking at 500 rpm for 1 minute, so that the antibody was fully mixed with the cells; the mixture was incubated at 4° C. for 1 h. After the incubation, the cells were washed twice with the staining buffer, with 100 μl per well, and centrifuged at 350-g for 5 minutes, and the supernatant was discarded. The PE goat anti-Human IgG Fc antibody (ebioscience, Cat #12-4998-82) was diluted 250-fold with the staining buffer, with a volume of 100 μl per well added to the washed cell wells; the mixture was mixed evenly, and stained at 4° C. for 30 minutes. After the staining, similarly, the cells were washed twice with the staining buffer; finally, the cells were resuspended in 200 μl of staining buffer; signals were detected by a flow cytometer (Thermo Attune NxT). The stronger the signal, the stronger the binding ability of an antibody to TNFR2. The binding curve of an antibody was drawn with antibody concentration as the abscissa and corresponding mean fluorescence intensity (MFI) fold as the ordinate, and fitted with four parameters (GraphPad Prism9) to calculate the EC50 value.

Row | Binder | Kd [1] [nM] | koff [1] [s⁻¹] | kon [1] [M⁻¹ s⁻¹] | Kd [2] [nM] | koff [2] [s⁻¹] | kon [2] [M⁻¹ s⁻¹] | EC50 [3] [ng/mL]
1 | B1 | 2.63 | 0.000848 | 323000 | 4.08 | 0.000697 | 171000 | 0.03
2 | B2 | 3.12 | 0.000991 | 318000 | 5.64 | 0.000815 | 145000 | 0.03
3 | B3 | 3.17 | 0.000881 | 278000 | 5.59 | 0.00072 | 129000 | 0.03
4 | B4 | 2.97 | 0.000847 | 285000 | 4.1 | 0.000726 | 177000 | 0.03
5 | B5 | 2.95 | 0.000835 | 283000 | 4.31 | 0.000686 | 159000 | 0.03
6 | B6 | 3.31 | 0.000828 | 250000 | 4.28 | 0.000682 | 159000 | 0.04

— patent US20240109974A1 (SHANDONG SIMCERE BIOPHARMACEUTICAL, published 2024)
